The test addresses T1, murine ELMO2 full-length, wild type (mouse, UniProt Q8BHL5 1-732).
T1 construct: ELMO2, murine cDNA cloned into pGEX4T1; called full-length in the ITC methods; Thrombin was added to the glutathione eluates overnight before size exclusion; also called ELMO2 WT; WT ELMO2; source: E. coli BL21 codon+, purified (glutathione resin, thrombin, S75 size exclusion)
T1 sequence (looked up): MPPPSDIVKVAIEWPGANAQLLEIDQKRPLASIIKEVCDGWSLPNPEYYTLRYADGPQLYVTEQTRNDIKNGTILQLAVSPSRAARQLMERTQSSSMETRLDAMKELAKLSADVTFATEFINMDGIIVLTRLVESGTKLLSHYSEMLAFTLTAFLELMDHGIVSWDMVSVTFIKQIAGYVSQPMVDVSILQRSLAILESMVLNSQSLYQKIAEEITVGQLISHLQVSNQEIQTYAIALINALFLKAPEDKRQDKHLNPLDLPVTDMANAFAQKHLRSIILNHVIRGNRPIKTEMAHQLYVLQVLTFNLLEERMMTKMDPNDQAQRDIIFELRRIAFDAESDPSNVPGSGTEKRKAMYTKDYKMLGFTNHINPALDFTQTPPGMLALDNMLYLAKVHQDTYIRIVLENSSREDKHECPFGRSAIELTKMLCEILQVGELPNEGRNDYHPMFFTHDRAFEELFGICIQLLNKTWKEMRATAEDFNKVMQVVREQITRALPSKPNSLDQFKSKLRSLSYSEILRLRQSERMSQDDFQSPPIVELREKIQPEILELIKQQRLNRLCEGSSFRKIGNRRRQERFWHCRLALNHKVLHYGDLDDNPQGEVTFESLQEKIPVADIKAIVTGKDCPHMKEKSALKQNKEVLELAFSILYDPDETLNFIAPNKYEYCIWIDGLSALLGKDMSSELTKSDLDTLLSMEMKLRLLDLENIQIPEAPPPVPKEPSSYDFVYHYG
Put plainly: ITC; 500 μM RHOG titrated into 40 μM Elmo2 full-length (WT or L43A); MicroCal ITC200, 25 °C; 20 mM Tris pH 7.5, 100 mM NaCl, 5 mM MgCl2, 1 mM DTT; one-site binding model. The conditions noted are these: both partners purified. A general note: Isothermal titration calorimetry measures the heat released or taken up as one component is titrated into another.

B1: human RHOG (residues 1-179) (domain or fragment)
chain: not shown
notes: RHOG, human, residues 1-179, cloned into pDEST17 with a thrombin cleavage site between the 6xHIS-tag and the GTPase; For NMR uniformly 15N-labelled (M9 medium with 15NH4Cl) and loaded with GMPPNP; For ITC made in LB; also called RHOG-GMPPNP; HIS-RHOG; source: E. coli BL21 codon+, purified (Ni-NTA, thrombin cleavage, S75 size exclusion)
In general, Kd refers to a measure of binding affinity in units of concentration. As for B1, the dissociation constant Kd was 10.3 µM.

The values are drawn from paper PMC9674853, “Biasing the conformation of ELMO2 reveals that myoblast fusion can be exploited to improve muscle regeneration” (Nature Communications, 2022).
